A short description of data set [1]: Dynamic light scattering particle size and PDI. The format is physicochemical. The source says: FIG. 68 is a structural schematic diagram of CTX-RBCmD. FIG. 69 is a diagram of DLS particle size distribution results.
The target in data set [2] is T1, EGFR (Homo sapiens, UniProt P00533).
T1 construct: can degrade the membrane receptor protein EGFR in various tumor cells; endogenous in cells; host or cells: MDA-MB-231 (M231), HeLa, U87
The data set can be described thus: EGFR protein degradation in cells, protein electrophoresis (Western blot). The format is cell-based. On the procedure:
In the above, the NP group refers to nanoparticles not linked with the POI recognition groups in the example. In all the examples involving multi-concentration test, the control group for POI recognition group and the control group for lipid hybrid substance were treated with the molar concentration equal to the highest concentration in concentration test group. All the protein electropherograms take GAPDH or VIN (vinculin) as internal reference.

In data set [3] the target is T1, EGFR. The data set can be described thus: EGFR on cell surfaces, immunofluorescent staining and confocal microscopy, M231 cells. The following applies: 500 nM antibodies, 24 hours. The format is cell-based.
For another data set, the target named is T2, EGFP-labeled fused EGFR (Homo sapiens, UniProt P00533).
T2 construct: expressed in transfected cells; host or cells: MDA-MB-231 (M231)
The data set can be described thus: Live-cell confocal imaging of EGFP-fused EGFR in M231 cells. The format is cell-based. The following applies: M231 living cells, fixed visual field, photographed continuously.

Another data set deals with HepG2 cells. Put plainly: CCK8 cell viability assay. The format is cell-based, human. The following applies: 500 nM antibody, 24 h, p<0.001.
Data set [4] can be described thus: Acute toxicity, blood parameters of liver and kidney function after a single administration. It counts as in vivo, mice. The following applies: 10 mg/kg via tail vein, blood 12 hours after injection. As for the experimental part: In the present example, acute hepatotoxicity on mice by the NTZ-NP nano-structural protein degradation tool was studied. The nanoparticles, the solvent PBS control, NTZ antibodies of equal molar quantity, and NP of equal molar quantity without NTZ antibodies (10 mg/kg) were injected into mice via tail vein, blood was taken 12 hours after injection, and blood biochemical indicators were detected by a kit.

The subject of the next data set is human glioma in situ. The data set can be described thus: In situ glioma model, immunohistochemical detection of EGFR and PCNA. It counts as in vivo, nude mice. The following applies: 10 mg/kg intravenous, every other day, 5 times. On the procedure: The administration was performed once every other day, 5 times in total, and after the administration cycle was completed, the mice were euthanized the next day, the brain tissues were taken and paraffin-embedded, and sectioned for immunohistochemical staining to study the protein degradation effect of NTZ on target protein EGFR and the tumor inhibition by detecting the tumor proliferation marker PCNA.

The target of a further data set is T3, β-amyloid 1-42 oligomer (Homo sapiens, UniProt P05067).
T3 construct: oligomers prepared from FITC green dye-labeled β-amyloid 1-42 polypeptide; host or cells: exogenous peptide added to human glial cells
Put plainly: Endocytosis of FITC-labeled β-amyloid 1-42 oligomer in human glial cells, confocal microscope. The following applies: 10 μM, 12 hours. It counts as cell-based. As for the experimental part:
1 μM FITC fluorescein-labeled 5 μM β-amyloid oligomer and AB-NP were co-cultured in human glial cells for 4 hours, subsequently extracellular solution was washed away with PBS. […] The lysosome theoretically can degrade β-amyloid so as to eliminate toxicity brought about by β-amyloid extracellular accumulation. (3) β-amyloid hijack experiment: 10 μM oligomers prepared from FITC green dye-labeled 3-amyloid 1-42 peptide and 10 μM AV45-NP were co-incubated, then, the treated residue not entering the cell was washed off with PBS, followed by confocal microscope imaging, to detect green fluorescence of the β-amyloid 1-42 oligomers. […] The lysosomal dye lysoTracker was used to label the lysosome. […] 10 μM AV-45 or AV45-NP and 10 μM FITC green fluorescence dye-labeled β-amyloid oligomers were co-incubated in culture medium and treated human glial cells for 12 hours.

A further data set has as its target T4, PD-1 receptor protein (Homo sapiens, UniProt Q15116).
T4 construct: expressed in transfected cells; host or cells: JURKAT cells overexpressing PD-1
Put plainly: PD-1 expression in JURKAT cells overexpressing PD-1, protein electrophoresis. It counts as cell-based. The following applies: JURKAT cells overexpressing PD-1, 500 nM, 24 h.

[5] abbreviates: M231 cells, 500 nM, fresh medium without treatment from the 24th hour.

Data on seven molecules can be found in patent US20240033374A1, “Nano-structural Protein Degradation Tool, Use, and Preparation Method thereof, and Lipid-based Protein Degradation Tool, Use, and Preparation Method thereof” (HENAN UNIVERSITY, priority 2022, published 2024).

T4 sequence (Q15116 25-288): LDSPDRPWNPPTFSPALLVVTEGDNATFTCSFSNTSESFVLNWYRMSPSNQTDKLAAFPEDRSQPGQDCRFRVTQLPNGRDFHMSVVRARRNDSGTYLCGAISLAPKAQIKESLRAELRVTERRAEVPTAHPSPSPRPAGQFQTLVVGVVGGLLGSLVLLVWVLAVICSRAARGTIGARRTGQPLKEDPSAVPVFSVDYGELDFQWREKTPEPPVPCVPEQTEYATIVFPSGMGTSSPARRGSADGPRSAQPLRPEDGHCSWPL
T3 sequence (P05067 672-713 limits assumed): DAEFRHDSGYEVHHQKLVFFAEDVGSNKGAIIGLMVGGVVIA
Procedure for M231 tumor: Administration every other day (15 mg/kg) was started on day 10 of inoculation of M231 tumor in female nude mice at 6-8 weeks of age, and a volume of the tumor (tumor length: a and width: b, volume calculation formula: ½ab^2) of the mice and body weight change were continuously monitored. After two weeks of administration, 7 times in total, the mice were euthanized the next day after the last administration, tumor tissues were isolated, and the tumor tissues were subjected to protein electrophoresis and immunofluorescence detection.
In the above, after being isolated, the tumor tissues were paraffin-embedded and sectioned, followed by immunofluorescence staining, and immunofluorescence staining results of EGFR and apoptotic core signal cleaved caspase-3 were detected.

Regarding “NTZ-lipoP: NTZ-PEG-DSPE on HSPC/cholesterol lipid membrane wrapping PLGA nanoparticles”, in [1], the “SIZE (DLS particle size)” value stood at 257 ± 7.0.
Turning to “NTZ-LNP2: NTZ-PEG-DMG with HSPC + cholesterol + DOTAP lipid nanoparticle”, the “EGFR protein expression (protein electrophoresis)” value in the data set with EGFR [2] (M231 cells, 24 h, concentration not given) is “can effectively degrade the target protein EGFR”.
For the molecule “NTZ-NP: PLGA nanoparticle core, PEG-DSPE intermediate layer, NTZ antibodies at periphery”, the “EGFR expression (protein electrophoresis)” value with EGFR [2] (HeLa cells, 500 nM, 24 h) is listed as “obvious decreases in EGFR expression”. Moreover, the “EGFR protein level / expression (protein electrophoresis)” value with EGFR [2] (M231 cells, 500 nM, 24 h) is listed as “obvious decreases in EGFR expression”. For the same molecule, in the data set with EGFR [2] (setting [5]), the “EGFR gradually recovered after” value is greater than 72 h and the “optimal degradation time for a single treatment” value was in the range of 24 to 48 h. Moreover, in the data set with EGFR [2] (M231 cells, 24 h), the “concentration at which EGFR is effectively degraded (as low as)” value is given as 10 nM. Moreover, the “EGFR expression (protein electrophoresis)” value with EGFR [2] (U87 cells, 500 nM, 24 h) is recorded as “obvious decreases in EGFR expression”. The “EGFR expression on cell surfaces (immunofluorescence)” value with EGFR [3] was “remarkably decreased”. In addition, the “green fluorescence signal of EGFP-labeled fused EGFR” value with EGFP-labeled fused EGFR is listed as “gradually decreases over time”. Also, the “cell proliferation (CCK8 cell viability)” value in the data set with HepG2 cells was “significantly inhibited”. Moreover, the “blood parameters BUN, UA, CR, ALB, ALP, ALT, AST” value in data set [4] is “no obvious abnormality”. Also, in the data set with human glioma in situ, the “EGFR in brain tumor (immunohistochemistry)” value is listed as “stronger than the ANG/NTZ-NP group” and the “proliferation marker PCNA in brain tumor (immunohistochemistry)” value is “stronger than the ANG/NTZ-NP group”. The “particle size (dynamic light scattering)” value in data set [1] is “about 150 nm”. Also, the “EGFR protein expression level in isolated tumor tissues (protein electrophoresis)” value in the data set on M231 tumor (15 mg/kg every other day, 7 times, five mice, p<0.05) is given as “significantly down-regulated”. For the same molecule, the tumor volume proliferation entry in the data set with M231 tumor (15 mg/kg every other day, 7 times, versus PBS, equal molar NTZ antibody and antibody-free nanoparticle groups) is “obviously inhibited”. Also, in the data set on M231 tumor (after treatment completed), the “EGFR signal in tumor tissues (immunofluorescence staining)” value is recorded as “EGFR signal is reduced” and the “apoptotic signal cleaved caspase-3 in tumor tissues (immunofluorescence staining)” value is given as “apoptotic signal rises”.
As for `CNc1ccc(/C=C/c2ccc(OCCOCCOCCF)nc2)cc1` [AV45, AV-45], on β-amyloid 1-42 oligomer, the “AV45 autofluorescence in cells (cell internalization)” value is on record as “very weak”.
With “ANG/NTZ-NP: NTZ-PEG-DSPE plus 20% Angiopep2-PEG-DSPE self-assembled with PLGA”, in the data set on human glioma in situ, the “EGFR in brain tumor (immunohistochemistry)” value was “solvent PBS control group and the NTZ-NP group are stronger than the ANG/NTZ-NP group”; the “proliferation marker PCNA in brain tumor (immunohistochemistry)” value is “solvent PBS control group and the NTZ-NP group are stronger than the ANG/NTZ-NP group”.
On to “NTZ-PEGlipo: NTZ antibody coupled to NHS-PEG liposomes (HSPC + cholesterol)”, for which the “EGFR protein level / expression (protein electrophoresis)” value in the data set with EGFR [2] (M231 cells, 500 nM, 24 h) is “can effectively degrade the target protein EGFR”.

B1: CRLZ-NP: Camrelizumab (CRLZ), PEG-DSPE linker, PLGA nanoparticle (conjugate, chains of the INN, looked up)
VH: EVQLVESGGGLVQPGGSLRLSCAASGFTFSSYMMSWVRQAPGKGLEWVATISGGGANTYYPDSVKGRFTISRDNAKNSLYLQMNSLRAEDTAVYYCARQLYYFDYWGQGTTVTVSS
VL: DIQMTQSPSSLSASVGDRVTITCLASQTIGTWLTWYQQKPGKAPKLLIYTATSLADGVPSRFSGSGSGTDFTLTISSLQPEDFATYYCQQVYSIPWTFGGGTKVEIK
modifications: PEG-DSPE PLGA nanoparticle
Consider B1, for which the “expression of PD-1 receptor protein” value in the data set with PD-1 receptor protein was “obviously reduced”.
